# T1: ENLYFQS substrate (SEQ ID NO:8)
# T1 chain: ENLYFQS
# T2: ENLYFES substrate (SEQ ID NO:1)
# T2 chain: ENLYFES
# T3: ALARR substrate (SEQ ID NO:36)
# T3 chain: ALARR
# T4: ALLPR substrate (SEQ ID NO:46)
# T4 chain: ALLPR
# T5: ALSRR substrate (SEQ ID NO:38)
# T5 chain: ALSRR
# T6: LLCKR substrate (SEQ ID NO:50)
# T6 chain: LLCKR
# T7: LQPRA substrate (SEQ ID NO:51)
# T7 chain: LQPRA
# T8: LRPRA substrate (SEQ ID NO:37)
# T8 chain: LRPRA
# T9: PLLAR substrate (SEQ ID NO:47)
# T9 chain: PLLAR
# T10: PLLPR substrate (SEQ ID NO:42)
# T10 chain: PLLPR
# T11: PLLRR substrate (SEQ ID NO:43)
# T11 chain: PLLRR
# T12: PLRPR substrate (SEQ ID NO:44)
# T12 chain: PLRPR
# T13: PLVPR substrate (SEQ ID NO:48)
# T13 chain: PLVPR
# T14: RLAPR substrate (SEQ ID NO:45)
# T14 chain: RLAPR
# T15: RLLPR substrate (SEQ ID NO:40)
# T15 chain: RLLPR
# T16: RLRPR substrate (SEQ ID NO:39)
# T16 chain: RLRPR
# T17: RLSRR substrate (SEQ ID NO:41)
# T17 chain: RLSRR
# T18: RLTPR substrate (SEQ ID NO:31)
# T18 chain: RLTPR
# T19: RRRRR substrate
# T19 chain: RRRRR
# T20: SLRRR substrate (SEQ ID NO:49)
# T20 chain: SLRRR
# T21: SPAKR substrate (SEQ ID NO:32)
# T21 chain: SPAKR
# T22: VARRD substrate (SEQ ID NO:14)
# T22 chain: VARRD
# How the values were obtained:
# [1] = system: LPETA sorting signal (SEQ ID NO:29)
# [2] = molecular target: T1, ENLYFQS substrate (SEQ ID NO:8)
# [3] = molecular target: T2, ENLYFES substrate (SEQ ID NO:1)
# [4] = molecular target: T3, ALARR substrate (SEQ ID NO:36)
# [5] = molecular target: T4, ALLPR substrate (SEQ ID NO:46)
# [6] = molecular target: T5, ALSRR substrate (SEQ ID NO:38)
# [7] = molecular target: T6, LLCKR substrate (SEQ ID NO:50)
# [8] = molecular target: T7, LQPRA substrate (SEQ ID NO:51)
# [9] = molecular target: T8, LRPRA substrate (SEQ ID NO:37)
# [10] = molecular target: T9, PLLAR substrate (SEQ ID NO:47)
# [11] = molecular target: T10, PLLPR substrate (SEQ ID NO:42)
# [12] = molecular target: T11, PLLRR substrate (SEQ ID NO:43)
# [13] = molecular target: T12, PLRPR substrate (SEQ ID NO:44)
# [14] = molecular target: T13, PLVPR substrate (SEQ ID NO:48)
# [15] = molecular target: T14, RLAPR substrate (SEQ ID NO:45)
# [16] = molecular target: T15, RLLPR substrate (SEQ ID NO:40)
# [17] = molecular target: T16, RLRPR substrate (SEQ ID NO:39)
# [18] = molecular target: T17, RLSRR substrate (SEQ ID NO:41)
# [19] = molecular target: T18, RLTPR substrate (SEQ ID NO:31)
# [20] = molecular target: T19, RRRRR substrate
# [21] = molecular target: T20, SLRRR substrate (SEQ ID NO:49)
# [22] = molecular target: T21, SPAKR substrate (SEQ ID NO:32)
# [23] = molecular target: T22, VARRD substrate (SEQ ID NO:14)
molecule,measurement,setting,value
SrtA from S. pyogenes (residues 81-249),"sortase transpeptidation in yeast ER (FACS, HA-FITC against FLAG-PE)",[1],"A positive signal resulted in an increase in HA-FITC signal and decrease in FLAG-PE signal (FIG. 6B), in comparison to the negative control (FIG. 6A)"
wild-type tobacco etch mosaic virus protease (TEV-P) (protein) GESLFKGPRDYNPISSTICHLTNESDGHTTSLYGIGFGPFIITNKHLFRRNNGTLLVQSLHGVFKVKNTTTLQQHLIDGRDMIIIRMPKDFPPFPQKLKFREPQREERICLVTTNFQTKSMSSMVSDTSCTFPSSDGIFWKHWIQTKDGQCGSPLVSTRDGFIVGIHSASNFTNTNNYFTSVPKNFMELLTNQEAQQWVSGWRLNADSVLWGGHKVFMSKPEEPFQPVKEATQLMNELVYSQFEHDEL,enrichment of cleaved substrate sequences after FACS sorting (YESS with NextGen sequencing),[2],significant enrichments of the ENLYFQS (SEQ ID NO:8) sequence were observed for the wide-type TEV-P
"engineered TEV protease variant TEV-PE10 (S120R, D148R, T173A, N177K, M218I) (protein) GESLFKGPRDYNPISSTICHLTNESDGHTTSLYGIGFGPFIITNKHLFRRNNGTLLVQSLHGVFKVKNTTTLQQHLIDGRDMIIIRMPKDFPPFPQKLKFREPQREERICLVTTNFQTKRMSSMVSDTSCTFPSSDGIFWKHWIQTKRGQCGSPLVSTRDGFIVGIHSASNFANTNKYFTSVPKNFMELLTNQEAQQWVSGWRLNADSVLWGGHKVFISKPEEPFQPVKEATQLMNELVYSQFEHDEL",enrichment of cleaved substrate sequences after FACS sorting (YESS with NextGen sequencing),[3],significant enrichments of the ... ENLYFES (SEQ ID NO:1) sequence for the engineered TEV-PE10
"Kex2 convertase (endogenous, yeast secretory pathway of Saccharomyces cerevisiae EBY100) (protein) APPMDSSLLPVKEAEDKLSINDPLFERQWHLVNPSFPGSDINVLDLWYNNITGAGVVAAIVDDGLDYENEDLKDNFCAEGSWDFNDNTNLPKPRLSDDYHGTRCAGEIAAKKGNNFCGVGVGYNAKISGIRILSGDITTEDEAASLIYGLDVNDIYSCSWGPADDGRHLQGPSDLVKKALVKGVTEGRDSKGAIYVFASGNGGTRGDNCNYDGYTNSIYSITIGAIDHKDLHPPYSEGCSAVMAVTYSSGSGEYIHSSDINGRCSNSHGGTSAAAPLAAGVYTLLLEANPNLTWRDVQYLSILSAVGLEKNADGDWRDSAMGKKYSHRYGFGKIDAHKLIEMSKTWENVNAQTWFYLPTLYVSQSTNSTEETLESVITISEKSLQDANFKRIEHVTVTVDIDTEIRGTTTVDLISPAGIISNLGVVRPRDVSSEGFKDWTFMSVAHWGENGVGDWKIKVKTTENGHRIDFHSWRLKLFGESIDSSKTETFVFGNDKEEVEPAATESTVSQYSASSTSISISATSTSSISIGVETSAIPQTTTASTDPDSDPNTPKKLSSPRQAMHYFLTIFLIGATFLVLYFMFFMKSRRRIRRSRAETYEFDIIDTDSEYDSTLDNGTSGITEPEEVEDFDFDLSDEDHLASLSSSENGDAEHTIDSVLTNENPFSDPIKQKFPNDANAESASNKLQELQPDVPPSSGRS","substrate cleavage in EBY100 against EBY100^Kex2- (two-colour FACS, FLAG-PE/HA-FITC)",[4],✓
same,"substrate cleavage in EBY100 against EBY100^Kex2- (two-colour FACS, FLAG-PE/HA-FITC)",[5],✓
same,"substrate cleavage in EBY100 against EBY100^Kex2- (two-colour FACS, FLAG-PE/HA-FITC)",[6],✓
same,substrate cleavage in EBY100 against EBY100^Kex2- (two-colour FACS),[7],All three substrates exhibited cleavage in EBY100 and non-cleavage in EBY100^Kex2-
same,substrate cleavage in EBY100 against EBY100^Kex2- (two-colour FACS),[8],efficient cleavage in the EBY100 and non-cleavage in the EBY100^Kex2- strain
same,"substrate cleavage in EBY100 against EBY100^Kex2- (two-colour FACS, FLAG-PE/HA-FITC)",[9],✓
same,"substrate cleavage in EBY100 against EBY100^Kex2- (two-colour FACS, FLAG-PE/HA-FITC)",[10],✓
same,"substrate cleavage in EBY100 against EBY100^Kex2- (two-colour FACS, FLAG-PE/HA-FITC)",[11],✓
same,"substrate cleavage in EBY100 against EBY100^Kex2- (two-colour FACS, FLAG-PE/HA-FITC)",[12],✓
same,"substrate cleavage in EBY100 against EBY100^Kex2- (two-colour FACS, FLAG-PE/HA-FITC)",[13],✓
same,"substrate cleavage in EBY100 against EBY100^Kex2- (two-colour FACS, FLAG-PE/HA-FITC)",[14],✓
same,"substrate cleavage in EBY100 against EBY100^Kex2- (two-colour FACS, FLAG-PE/HA-FITC)",[15],✓
same,"substrate cleavage in EBY100 against EBY100^Kex2- (two-colour FACS, FLAG-PE/HA-FITC)",[16],✓
same,"substrate cleavage in EBY100 against EBY100^Kex2- (two-colour FACS, FLAG-PE/HA-FITC)",[17],✓
same,"substrate cleavage in EBY100 against EBY100^Kex2- (two-colour FACS, FLAG-PE/HA-FITC)",[18],✓
same,"substrate cleavage in EBY100 against EBY100^Kex2- (two-colour FACS, FLAG-PE/HA-FITC)",[19],✓
same,substrate cleavage in EBY100 against EBY100^Kex2-,[20],the RRRRR was also found to be only cleaved in the EBY100 and not in the EBY100^Kex2-
same,"substrate cleavage in EBY100 against EBY100^Kex2- (two-colour FACS, FLAG-PE/HA-FITC)",[21],✓
same,substrate cleavage in EBY100 against EBY100^Kex2- (two-colour FACS),[22],All three substrates exhibited cleavage in EBY100 and non-cleavage in EBY100^Kex2-
same,substrate cleavage in EBY100 against EBY100^Kex2- (two-colour FACS),[23],All three substrates exhibited cleavage in EBY100 and non-cleavage in EBY100^Kex2-

# From US20170233781
